The binders below were run against Bcl-xL, Q07817 (assay: peptide SPOT array, c-Myc-tagged receptor at 1 uM or 100 nM, anti-c-Myc-Cy3).
Bcl-xL, Q07817, sequence (Q07817 1-209): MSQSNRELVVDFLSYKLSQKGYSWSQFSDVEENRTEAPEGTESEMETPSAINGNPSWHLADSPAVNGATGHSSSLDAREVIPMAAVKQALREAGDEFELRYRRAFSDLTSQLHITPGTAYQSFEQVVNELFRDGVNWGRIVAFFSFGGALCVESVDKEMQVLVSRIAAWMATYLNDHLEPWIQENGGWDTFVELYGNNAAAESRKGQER

Row | SPOT signal as a fraction of Bim BH3's signal on the same receptor and array | Binder
1 | 0.16 | FVDINPLTGIILKAAKRFQINIYVKK [SCARB2]
2 | 0.44 | GERLRQSGERLRQSGERFKKSISNAA [MURC]
3 | 0.48 | ATKRETAATFLKKVLKEFGFQNNGFS [NPLOC4]
4 | 0.03 | GMTMIEICEKLEDCSRKLIKENGLNA [METAP2]
5 | 0.91 | HRNTRNLAAFLGKASDLLRFPVKQLY
6 | 0.17 | DISLSNSGFKLVNFLCDYHQYRDKFS [PION]
7 | 0.21 | DLSSTFVSLADRKVGDWPLSARREKG [TTC31]
8 | 0.62 | EVRSSQFARKLWRSLRRISQVSSGET [NBEAL2]
9 | 0.05 | PVQVQQYIKKLYILGGEVAESAQKCT [PAXIP1]
10 | 0.03 | FSEFIGMIQEIQQAAERLERNFVDSR [RNF123]
11 | 0.03 | FERVEQMCIQDKEVGDRVNYIKRSLQ [TRPM7]
12 | 0.02 | VGNVDECGKKLVEVARRCRDEAIAAC [XXXX]
13 | 0.03 | HERCQQPCKRLLICSHKCQEPCIGEC [ZNFX1]
14 | 0.02 | VENTTDLASILIKDADRLNSGCYELK [TTN]
15 | 1.4 | HRNTRNLAAFDGKASDLLRFPVKQLY
16 | 0.41 | FTGNNTAVQEDKRVSEQFTATFRRKA [TUBB4Q]

Row | SPOT signal as a fraction of Bim BH3's signal on the same receptor and array | Binder
17 | 0.08 | GHIYLGAVNRIYKLSSDLKVLVTHET [PLXNA4]
18 | 0.13 | KVFLNKAADFIEELSSLFKSHSSKRI [MYPN]
19 | 0.22 | LKELDLSGNSDSHSAVKSLCKTLRRP [NLRP1]
20 | 0.02 | SISLTPVAKGLENMGADFLESLEEGQ [SLC28A1]
21 | 0.35 | HRTSNVLTLSLKRFLNFSGGKITKDV [USP36]
22 | 0.51 | RAELTGLARRDADRARKLQETNLRAV
23 | 0.19 | FLRINTIAMRLLAYALDYWSKGQLKA [PANK2]
24 | 0.03 | LTKAERLSKELLQCGRIIKEEWIEIE [TTC23]
25 | 0.03 | NKELSELIEQLQKNADQVEKNIVDTE [PPL]
26 | 0.03 | NGQFLGDALDLQKWAHEVWDIVDIKP [PPIL6]
27 | 0.03 | VTQLRSLVIDLERTAKELDTNTLKNA [TRIM40]
28 | 0.05 | LDYHRQAVQILDELAEKLKRRMREAS [SH3GL1]
29 | 0.43 | HPKRKQVTELLLRKLANVNEKNKDFM [TNKS]
30 | 0.58 | RAELTGLARRLADRARKLQETNLRAV
31 | 0.03 | TERIILFGRELQALSEQLGREYGKNL [RANBP10]

The next lines start with the binder.

Row | Binder | SPOT signal as a fraction of Bim BH3's signal on the same receptor and array
32 | DFEARKAAIEIARLAERAQQKTLTSA [C4orf22] | 0.04
33 | YKGHREIARYLLEQLAQVNRRSAKGN [FEM1A] | 0.81
34 | LGRTGQVCLFLKRGLDQHALDQEQRD [ACAP3] | 0.29
35 | GFANHDVVEVDRNAGQVVHLTLVRRK [INADL] | 0.08
36 | TNISWRACDHDRCIACDFLVVSYDDY [C8orf37] | 0.03
37 | KEDLKGNIDKLRALADDIDKTHKKFT [APOL6] | 0.17
38 | DVNIPDLIKQLDILGDNGNLRNEEQV [JAKMIP2] | 0.02
39 | FGTTLKNCRHLLECAKELDVQIIGVK [AZIN1] | 0.03
40 | EVLAGPLAQRDSHIAEDVGRLVKKSR [ARHGAP4] | 0.04
41 | DISALTASNLDKKYAEKYSGILEGPV [FIGN] | 0.02
42 | PFDCRDYAVVLRKYLDKIYSISMKHP [FOLH1] | 0.44
43 | WDEMNVLAHGLLQLGQGLREHAERTR [ANGPTL4] | 0.04
44 | NRGYYDVAKQLLAAGAEVNTKGLDDD [ANKRD11] | 0.03
45 | PHQFDGVPDKLIQALYQVKYNSKKMK [EVI5] | 0.48
46 | VYILRKAARRLAQVLRAAGVRVGLLS [CACNA1G] | 0.67
47 | MDYVGGYALCLDMTARDVQDECKKKG [FAHD1] | 0.03
48 | RTNNYQLSDEDRKNGVELTSLRQKVA [GRIPAP1] | 0.05
49 | GPGTLECAELLLRFGARVDGRSEEEE [ASB10] | 0.03
50 | DGVLSFIHHQIIELARDCLTKSRDGL [MAST1] | 0.03
51 | LFQLKFTAKQLEKLAKKAEKDSKAEQ [CHMP1A] | 0.18
52 | LSSISELSARLHLWAFKMDYETTEKE [FHOD3] | 0.03
53 | EMNLQDHIESISKVAEVAGKEYAIEQ [DNAH1] | 0.02
54 | RMNLQTMVDTLQEAAQEADAIQEEMN [IFFO2] | 0.02
55 | YGKVKFTAEELSNMASELAKYGLQLP [IQGAP3] | 0.05

Reference: article PMC4072508, “Genome-Wide Prediction and Validation of Peptides That Bind Human Prosurvival Bcl-2 Proteins” (PLoS Computational Biology, 2014)
